According to PMC3411786:

Legend:
Asp85 [1] = target: Asp85 (UniProt position 98, WARYADWLFTA); test: UV-vis; details: pH adjusted with 0.1 M HCl or NaOH, Retinal-reconstituted chromoprotein in purple membrane, ground state. Light/dark adaptation state during the titration is not stated.
Asp85 [2] = target: Asp85 (UniProt position 98, WARYADWLFTT); test: UV-vis; details: pH adjusted with 0.1 M HCl or NaOH, Retinal-reconstituted chromoprotein in purple membrane, ground state. Light/dark adaptation state during the titration is not stated.
[3] = 150 mM KCl, none stated (Methods say non-buffered)
[4] = Deionised water with no added salt, apart from the HCl/NaOH titrant, none (non-buffered)

Row | Substance | pKa (Asp85 [1]; [3]) | pKa (Asp85 [1]; [4]) | pKa (Asp85 [2]; [3]) | pKa (Asp85 [2]; [4])
1 | Bacteriorhodopsin T90A, bacterioopsin reconstituted with 13-ethyl retinal (T90A-13E-RET) (Halobacterium salinarum; T90A) | 6.4 | 6.7 |  | 
2 | Bacteriorhodopsin T90A, bacterioopsin reconstituted with all-trans retinal (T90A-AT) (Halobacterium salinarum; T90A) | 5.8 | 6.1 |  | 
3 | Bacteriorhodopsin, wild-type bacterioopsin reconstituted with 13-ethyl retinal (WT-13E-RET) (Halobacterium salinarum) |  |  | 4.5 | 4.7
4 | Bacteriorhodopsin, wild-type bacterioopsin reconstituted with all-trans retinal (WT-AT) (Halobacterium salinarum) |  |  | 3.9 | 4.6
